Key:
MMTV-PyMT tumor = experiment: Histological analysis of injected CBD-SA within tumor; format: in vivo, mouse; details: 1 h after i.v. injection, CD31 staining
Protocol: Mouse SA (Sigma-Aldrich) and CBD-SA were conjugated with NHS-DyLight 488 according to manufacturer's instructions. Unreacted dye was removed by Zeba spin desalting column, then fluorescent protein solution was stored at 4° C. until use. 100 μg of fluorescent labeled SA or CBD-SA labeled with equimolar of dye was intravenously injected to MMTV-PyMT tumor-bearing mice. 1 h after injection, tumors were harvested and frozen in dry ice with OCT compound. 10 μm of tissue slices were obtained by cryo-sectioning. The tissues were fixed with 2% paraformaldehyde in PBS for 15 min at room temperature. After wash with PBS-T, the tissues were blocked with 2% BSA in PBS-T for 1 h at room temperature. The tissues were stained with biotin labeled anti-mouse CD31 antibody (1:100, Biolegend) and Alexa Fluor 647 streptavidin (1:1000, Biolegend). The tissues were washed three times, then covered with ProLong gold antifade mountant with DAPI (Thermo fisher scientific). IX83 microscope (Olympus) was used for imaging with ×60 magnification. Images were processed using ImageJ software (NIH).

collagen type I = collagen type I (Homo sapiens, UniProt P02452+P08123); experiment: Binding affinity of CBD-SA to collagen by ELISA
Protocol: (§1) The binding affinity of CBD-SA to collagens were tested as described previously (9). 96 well ELISA plates (Greiner Bio-One) were coated with collagen I or collagen III (10 μg/mL each in PBS) for overnight at 37° C., followed by blocking with 2% BSA in PBS with 0.05% Tween 20 (PBS-T) for 1 h at room temperature. Then, wells were washed with PBS-T and further incubated with CBD-SA at increasing concentrations for 2 h at room temperature. After three washes with PBS-T, wells were incubated for 1 h at room temperature with biotin- conjugated Abs against mouse SA. After washes, bound CBD-SA were detected with tetramethylbenzidine substrate by measurement of the absorbance at 450 nm with subtraction of the absorbance at 570 nm. The apparent Kd values were obtained by nonlinear regression analysis in Prism software (version 7, GraphPad) assuming one-site-specific binding.

collagen type III = biological target: T1, collagen type III (Homo sapiens, UniProt P02461); experiment: Binding affinity of CBD-SA to collagen by ELISA
T1 sequence (P02461 154-1221 limits assumed): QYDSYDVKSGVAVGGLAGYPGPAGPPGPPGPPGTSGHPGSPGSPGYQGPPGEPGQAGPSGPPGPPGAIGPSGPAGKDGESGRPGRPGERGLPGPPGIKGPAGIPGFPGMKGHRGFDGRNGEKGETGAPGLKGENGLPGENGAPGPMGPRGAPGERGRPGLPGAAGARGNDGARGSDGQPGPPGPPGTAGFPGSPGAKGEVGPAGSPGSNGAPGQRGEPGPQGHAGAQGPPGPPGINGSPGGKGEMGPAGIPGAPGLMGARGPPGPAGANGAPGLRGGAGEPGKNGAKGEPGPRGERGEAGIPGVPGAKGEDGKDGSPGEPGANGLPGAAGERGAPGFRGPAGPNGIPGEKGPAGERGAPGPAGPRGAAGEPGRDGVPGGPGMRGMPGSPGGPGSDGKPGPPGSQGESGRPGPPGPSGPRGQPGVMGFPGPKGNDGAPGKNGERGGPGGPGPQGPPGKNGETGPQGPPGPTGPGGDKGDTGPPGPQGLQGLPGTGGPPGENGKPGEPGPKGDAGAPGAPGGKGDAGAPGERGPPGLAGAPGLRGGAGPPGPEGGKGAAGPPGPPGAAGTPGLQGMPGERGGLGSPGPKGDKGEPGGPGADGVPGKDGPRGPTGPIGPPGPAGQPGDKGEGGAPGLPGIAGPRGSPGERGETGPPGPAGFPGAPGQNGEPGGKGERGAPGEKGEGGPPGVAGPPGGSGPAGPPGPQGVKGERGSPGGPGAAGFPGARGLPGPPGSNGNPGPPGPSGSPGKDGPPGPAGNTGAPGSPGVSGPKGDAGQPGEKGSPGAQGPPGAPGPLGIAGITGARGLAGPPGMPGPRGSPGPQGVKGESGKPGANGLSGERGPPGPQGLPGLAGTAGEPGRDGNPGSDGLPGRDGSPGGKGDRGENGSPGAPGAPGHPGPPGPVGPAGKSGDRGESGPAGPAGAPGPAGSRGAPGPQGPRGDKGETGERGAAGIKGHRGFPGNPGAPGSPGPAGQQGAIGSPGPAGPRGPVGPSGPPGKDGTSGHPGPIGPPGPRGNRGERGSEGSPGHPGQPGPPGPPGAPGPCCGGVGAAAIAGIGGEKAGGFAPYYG
Protocol: as §1

collagen type I, sequence (P02452 162-1218 limits assumed): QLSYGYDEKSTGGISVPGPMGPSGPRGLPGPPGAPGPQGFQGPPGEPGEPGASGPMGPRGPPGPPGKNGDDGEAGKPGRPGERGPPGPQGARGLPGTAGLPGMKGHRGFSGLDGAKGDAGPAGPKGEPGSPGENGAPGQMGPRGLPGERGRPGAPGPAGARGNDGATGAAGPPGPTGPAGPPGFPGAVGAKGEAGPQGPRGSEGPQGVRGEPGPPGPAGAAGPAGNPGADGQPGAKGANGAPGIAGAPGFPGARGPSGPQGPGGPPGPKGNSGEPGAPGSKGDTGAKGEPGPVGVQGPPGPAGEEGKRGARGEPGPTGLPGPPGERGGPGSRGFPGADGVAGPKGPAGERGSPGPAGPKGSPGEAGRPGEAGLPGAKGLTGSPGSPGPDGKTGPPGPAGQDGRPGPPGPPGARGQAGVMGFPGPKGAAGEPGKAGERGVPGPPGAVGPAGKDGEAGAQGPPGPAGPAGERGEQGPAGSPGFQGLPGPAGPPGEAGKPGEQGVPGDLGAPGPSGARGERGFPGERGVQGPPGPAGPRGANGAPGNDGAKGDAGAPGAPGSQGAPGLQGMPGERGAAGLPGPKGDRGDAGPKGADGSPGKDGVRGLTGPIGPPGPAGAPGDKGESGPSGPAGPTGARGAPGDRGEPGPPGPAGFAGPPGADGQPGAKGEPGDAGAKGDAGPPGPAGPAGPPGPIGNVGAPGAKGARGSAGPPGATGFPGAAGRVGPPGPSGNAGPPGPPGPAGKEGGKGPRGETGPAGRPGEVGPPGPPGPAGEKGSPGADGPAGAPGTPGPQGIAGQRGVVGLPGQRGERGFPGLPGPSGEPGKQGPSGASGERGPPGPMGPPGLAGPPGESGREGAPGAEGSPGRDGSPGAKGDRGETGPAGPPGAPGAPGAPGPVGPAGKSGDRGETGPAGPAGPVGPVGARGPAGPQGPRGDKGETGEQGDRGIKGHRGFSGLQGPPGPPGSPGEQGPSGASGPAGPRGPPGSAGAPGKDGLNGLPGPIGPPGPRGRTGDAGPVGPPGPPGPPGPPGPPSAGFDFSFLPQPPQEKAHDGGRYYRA
collagen type I, sequence (P08123 80-1119 limits assumed): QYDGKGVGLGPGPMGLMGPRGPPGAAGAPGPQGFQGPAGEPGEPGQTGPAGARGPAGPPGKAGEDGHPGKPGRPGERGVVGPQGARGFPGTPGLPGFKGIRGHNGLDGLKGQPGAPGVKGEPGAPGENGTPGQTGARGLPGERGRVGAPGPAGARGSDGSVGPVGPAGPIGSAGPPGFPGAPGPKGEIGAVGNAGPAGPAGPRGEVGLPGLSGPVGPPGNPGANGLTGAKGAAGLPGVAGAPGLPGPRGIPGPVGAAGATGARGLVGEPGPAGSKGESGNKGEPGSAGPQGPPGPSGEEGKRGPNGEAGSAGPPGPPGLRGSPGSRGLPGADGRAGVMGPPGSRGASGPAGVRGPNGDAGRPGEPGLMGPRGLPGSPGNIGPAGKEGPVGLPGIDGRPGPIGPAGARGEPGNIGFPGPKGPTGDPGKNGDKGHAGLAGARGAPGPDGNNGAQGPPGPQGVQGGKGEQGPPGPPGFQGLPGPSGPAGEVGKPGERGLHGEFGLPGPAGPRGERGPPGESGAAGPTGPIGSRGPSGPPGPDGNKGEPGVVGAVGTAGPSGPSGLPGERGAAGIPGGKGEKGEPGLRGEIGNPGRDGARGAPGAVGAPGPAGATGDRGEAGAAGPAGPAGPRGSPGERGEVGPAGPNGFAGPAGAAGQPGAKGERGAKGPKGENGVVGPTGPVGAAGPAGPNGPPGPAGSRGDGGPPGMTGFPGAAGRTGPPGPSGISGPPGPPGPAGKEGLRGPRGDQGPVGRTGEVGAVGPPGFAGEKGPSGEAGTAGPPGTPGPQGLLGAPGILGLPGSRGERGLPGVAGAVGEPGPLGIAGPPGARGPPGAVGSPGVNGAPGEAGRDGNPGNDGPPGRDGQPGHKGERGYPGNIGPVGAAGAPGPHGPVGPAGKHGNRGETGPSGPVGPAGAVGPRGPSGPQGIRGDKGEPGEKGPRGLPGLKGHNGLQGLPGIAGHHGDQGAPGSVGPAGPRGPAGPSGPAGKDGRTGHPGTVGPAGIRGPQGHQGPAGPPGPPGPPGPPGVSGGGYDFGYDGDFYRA

B1: CBD-SA: recombinant mouse serum albumin with VWF A3 collagen binding domain on the N-terminus via (GGGS)2 linker (SEQ ID NO:3) (protein)
chain: CSQPLDVILLLDGSSSFPASYFDEMKSFAKAFISKANIGPRLTQVSVLQYGSITTIDVPWNVVPEKAHLLSLVDVMQREGGPSQIGDALGFAVRYLTSEMHGARPGASKAVVILVTDVSVDSVDAAADAARSNRVTVFPIGIGDRYDAAQLRILAGPAGDSNVVKLQRIEDLPTMVTLGNSFLHKLCSGFVRIGGGSGGGSEAHKSEIAHRYNDLGEQHFKGLVLIAFSQYLQKCSYDEHAKLVQEVTDFAKTCVADESAANCDKSLHTLFGDKLCAIPNLRENYGELADCCTKQEPERNECFLQHKDDNPSLPPFERPEAEAMCTSFKENPTTFMGHYLHEVARRHPYFYAPELLYYAEQYNEILTQCCAEADKESCLTPKLDGVKEKALVSSVRQRMKCSSMQKFGERAFKAWAVARLSQTFPNADFAEITKLATDLTKVNKECCHGDLLECADDRAELAKYMCENQATISSKLQTCCDKPLLKKAHCLSEVEHDTMPADLPAIAADFVEDQEVCKNYAEAKDVFLGTFLYEYSRRHPDYSVSLLLRLAKKYEATLEKCCAEANPPACYGTVLAEFQPLVEEPKNLVKTNCDLYEKLGEYGFQNAILVRYTQKAPQVSTPTLVEAARNLGRVGTKCCTLPEDQRLPCVEDYLSAILNRVCLLHEKTPVSEHVTKCCSGSLVERRPCFSALTVDETYVPKEFKAETFTFHSDICTLPEKEKQIKKQTALAELVKHKPKATAEQLKTVMDDFAQFLDTCCKAADKDTCFSTEGPNLVTRCKDALAHHHHHH
localization of fluorescently-labeled protein within tumor tissue (MMTV-PyMT tumor): co-localized with CD31 staining within tumor tissue | dissociation constant (Kd) to collagen type I (collagen type I): nM range | dissociation constant (Kd) to collagen type III (collagen type III): nM range

Source: patent US20220298225A1, “METHODS AND COMPOSITIONS FOR TREATING CANCER WITH COLLAGEN BINDING DRUG CARRIERS” (The University of Chicago, priority 2019, published 2022)
